Drawing on a protein production outcome set (Wang et al. 2014), this text covers protein production for 37 sequences.

A short description of the data set: label from the status in PepcDB records.
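Further: failed if final PepcDB status was selected cloned or expressed and not failed if soluble or beyond.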

For “DLREVLDFMLKDEVSKLRKLLVKIKTKKIAEVEYENVVKALKLFKDNYEINEYLMDENTKEFLIKRNILFLNPVEEILKPQSYLVWNAIKRVLQNINDF”, the protein production entry is “not failed”. On to “DPGERLYDLNMPAYVKFNYMAEREDELSLIKGTKVIVMEKCSDGWWRGSYNGQVGWFPSNYVTEEGDSPLGDHVG”, for which the protein production result was “not failed”. Consider “DRFPVTPVSREDLAGVLEAVERLRHWRPAAAGAWAVDYRGMLEGVHAQGVFDDGHWADLLRLLELSGAPREFGHGDLVLANVVRSRGRQVLIDWASSALYLPGLDLAQLWMLLGDVPGARARIEVEVADRADDRDGMMPFLVNLTLLLYRERRAHRRF”, for which the protein production result is “failed”. For “DVLSSSNFILPDGIGVVMMSRLTNNRLQSRIAGYDVFKELLGVANKKKKRIFLYGAKKDVIKGVVSKISSEYPNIKIAGYSDGYVQDRTLVAKQIARANPDMVFVALGYPHQEKFIHNYRHLFPKAVSIGLGGSFDVFSGNVKRAPSWMIRLNLEWFYRLILNPWRWKRM” the value was “not failed”.

For the sequence “DVREFQPENFARFHPGGSLGRRLLSKVQDEMFSDNIPSVASDADFTSIIHKISSSHLGLTLVNLKDDSLAIITDGDLRRAMESKGRDAFDLVAKDIASINPASISPESNIQKAYEIMESKGITSLIVVESNSVVGIL”, the protein production result is reported as “failed”. On to “DYIEGVIADISDVYDELRLRKQAEVALQASEAELRSLFSAIPDPLCVVTAQGRVIETVAGNPRQLYSSVEEKVGKTLHQIFEEEQADKFMGYIQQVLRTQQVLTVEYSLQIDGRETWFSARIAPIRHE”, for which the protein production result is reported as “failed”.

For the sequence “EADMLFSVTVPGSTANLGPGFDSVGMALSRYLKLTVFESDKWSFEAETETVAGIPAGTDNLIYQVAKRTADLYGKEMPPVHVKVWSDIPLARGLGSSAAAIVAAIELADELCGLKLSEADKLHLASLEEGHPDNAGASLVGGLVIGLHEDDETQM”, the protein production entry is listed as “failed”.

As to “ECSQDCATCSYRLVRPADINFLACVMECEGKLPSLKIWETCKELLQLSKPELPQDGTSTLRENSKPEESHLLAKRYGGFMKRYGGFMKKMDELYPMEPEE”, the protein production entry is on record as “failed”. With “EDFRPVVFVHGLAGSAGQFESQGMRFAANGYPAEYVKTFEYDTISWALVVETDMLFSGLGSEFGLNISQIIDPETLDKILSKSRERLIDETFSRLDRVIDEALAESGADKVDLVGHSMGTFFLVRYVNSSPERAAKVAHLILLDGVWGVDAPEGIPTLAVFGNPKALPALGLPEEKVVYNATNVYFNNMTHVQLCTSPETFAVMFEFINGYKPATT” the entry was “not failed”.

Regarding “EDPFQPEIKVRCVCGNSLETDSMIQVIWDELTAFIPCEDPRCHVWQHVGCVILPDKPMDGNPPLPESFYCEICRLT”, the protein production entry was “not failed”. For “EDPGDAQVVFARLDAYIRRHLQSEIEVAALAEQAHMSTRSLYALFERQLGESPRQYIRRLRLERIRACLEDPGCRVRNLTELALDFGFAHLGRFAEQYRRQFGELPSETLRRRA” the value was “failed”. For “EDVKEFEREETQDKEESVESSLPLNAIEPCVICQGRPKNGCIVHGKTGHLMACFTCAKKLKKRNKPCPVCRQPIQMIVLTYFP”, the protein production entry was “failed”. For “EEAGRSATEIARAVAAVSAPIDLVAAGAAIDSGVNRLIYTRHFLRTMIPNALAKWQQHPGLFDRELVQRATTLREFDDAFTAPLHGFTGVDDYWTRASSKPHLHKITIPALVVNARNDPFVPAVSLPTQDEVGEMVTLWQPDEGGHVGFATGPWPGRIAAMPEAVSDWLGAV” the value was “failed”; for “EEKPCGFPHVENGRIAQYYYTFKSFYFPMSIDKKLSFFCLAGYTTESGRQEEQTTCTTEGWSPEPRCFKKCTKPDLSNGYISDVK”, “failed”. For “EEMEKGFDPKRYARELWFKLQDMMNEGLGYDAVEVLNTLDENPELAHQKFAKVVGVSNYRYYIIQGVGEIVEIKDDGILVKVRENRKVPDLFLSNHIFGNGIVNATGIAKMEDFDRIIDFNLTATELNKIVKEEVVNSFLKQLSKGAGSVGSLVRFIAVFTLLKDEEIKYPIEAIPLYLEIQGGF” the value was “not failed”; for “EGAGDALTTVAERARLLADACAGVILHPTAEGGMAIVTASTPDDPDGMVGATIEPGSPVLEQLLGGEPVFVDDSATDPRMTTHVRHRFGPSMMLPLQAGGRLIGTLALPRRRGGRPYTDLERLLATQFASQAALALVLADARRGRELLAVYEDRDRIARDLHDLVV”, “failed”. For “EGLNICKKIMVISDKNDAISEFIIKELERGCTIIDGKGGYTGKDTYILYTVLNRKEFIRLRIFIKETDPNAFITISDAKEVLGEGFKEI” the value was “not failed”; for “EHIARRKAGDAAERLVKLIPAFCHHMPDYPDTQETCEAAVVKLKAGDIVLVKPGETIPVDGTVLEGSSAVNESMLTGESLPVAKMPSEKVTAGTLNTQSPLIIRTDRTGGGTRLSHIVRLLDRALAQKPRTAELAEQ”, “failed”. Turning to “EIKIGITMSASGPGAALGQPQSKTVAALPKEIGGEKVTYFALDDESDPTKAAQNARKLLSEEKVDVLIGSSLTPVSLPLIDIAAEAKTPLMTMAAAAILVAPMDERRKWVYKVVPNDDIMAEAIGKYIAKTGAKKVGYIGFSDAYGEGYYKVLAAAAPKLGFELTTHEVYARSDASVTGQVLKIIATKPDAVFIASAGTPAVLPQKALRERGFKGAIYQTHGVATEEFIKLGGKDVEGAIFAGEAFSGAEDMPADSPFRKVKARFVDAYKAANGGAAPTIFGVHLWDSMTLVENAIPAALKAAKPGTPEFRAAIRDQIEKSKDLALNNGLSNMTPDNHNGYDERSAFLIEIRDGAFRLKQ”, the protein production result is given as “not failed”.

On to “EKAEDCWELQISPELLAHGRQKILDLLNEGSARDLRSLQRIGPKKAQLIVGWRELHGPFSQVEDLERVEGITGKQMESFLKANILGLAAGQ”, for which the protein production entry is “not failed”.

Turning to “EKDTIAAEHKQEASVLLNLHRNKINYLIGETMARMTSLSIAIDRPVDIKKMQSILEKTFDSEPRFSGLYFLNAKGDVTASTTELKTKVNLADRSFFIKAKETKKTVISDSYSSRITGQPIFTICVPVLDSKRNVTDYLVAAIQIDYLKNLINLLSPDVYIEVVNQDGKMIFASGQASHAEDQKPVSGYLDDISWNMKVYPNPVTIEELSKS”, the protein production result is on record as “failed”. Turning to “EKEKDTIAAEHKQEASVLLNLHRNKINYLIGETMARMTSLSIAIDRPVDIKKMQSILEKTFDSEPRFSGLYFLNAKGDVTASTTELKTKVNLADRSFFIKAKETKKTVISDSYSSRITGQPIFTICVPVLDSKRNVTDYLVAAIQIDYLKNLINLLSPDVYIEVVNQDGKMIFASGQASHAEDQKPVSGYLDDISWNMKVYPNPVTIEELSKSL”, the protein production entry is on record as “not failed”. Consider “EKVDLQYAAYEPKKLQSGNKNPLIIWLHGQGEGGTDPDITLLGNKVTALIKEDIQNHFKSGNQKGTYVLTVQAPTYWMDEGDGSNGQGAGTSRYTEVLMDAIKKYVAKIT”, for which the protein production entry is “failed”.

With “ELAWLVDCLAPIFDGLRQPVTVVDPSGRFVYYNRASGLLDGLDPQRALGMHLLQSAPWLAAEQSTLLRCLAEGRPSIDTLQAYVGAGGELLQYRHRAIPLRGRDGCLLGAMEL”, the protein production result is “failed”. With “EMRLEKDRFSVNLDVKHFSPEELKVKVLGDVIEVHGKHEERQDEHGFISREFHRKYRIPADVDPLTITSSLSSDGVLTVNGPRKQVSGPERTIPIT”, the protein production result is “failed”.

With “EMTLVTLRSNDQFNTTIYGFSDRLRGLEGPRNVLLMNPEEIARHGLHEGQRVTLECAWSDGVDRRVSGLRVTAYDLPDSCVGAYYPETNPLVPLAARDELSGTPAYKGTPVRVRAEGSAAPL”, the protein production entry was “failed”. With “EPEQVIRKYTEELKVAPEEDCIICMEKLAVASGYSDMTDSKALGPMVVGRLTKCSHAFHLLCLLAMYCNGNKDGSLQCPSCKTIYGEKTGTQPWGKMEVFR” the entry was “not failed”; with “EQVQRFGDLDVHYNVFNSSFLQPNVASAVGLVRSKAQGVINVVPMEKGKPVEAAVTGSAKDLTGKVIPLEFRRVSEEGAIYNLAQFPISQRETLVFTIKVEAKGEPAQTFSFNKEIFPDE”, “not failed”. For “ERREKKNKIMQAKEDFKKMMEEAKFNPRATFSEFAAKHAKDSRFKAIEKMKDREALFNEFVAAARKKEKE” the value was “not failed”; for “ETTMPASRSLVDKPVHRFEIIPWNGKKVGYLMYNEFKAGPTTDSQAYNDDLRRAFRDFQTGGVNEFVLDLRYNTGGSLDCAQLLCTMLAPADKMNQLLALLRYSDKRVEANQDLTFNPELIQSGANLNLSTVYVLTTNATRGAAEMVINCLNPYMKVVLIGTKTAGEYVATKPFVHPTDRFILNLVVCNVYNAEEKSDYATGFKPTYEYNEDSYLSTYLPFGNTNETLLNAALKIMSGITDK”, “failed”.

Consider “EVILGDGIFPLTALAVGKDDRAFAVIRTAGGQAPHPDVDFPELSSTGLLLSSLKPADRALLPEGTPDREVSIDLGGQMMPYEWRILTDGQSSSATVQEGQRLRMVMRNRTMMPHPMHIHGHTWALPGSGGLRKDTVLLRHGETMIADLIADNPGEWAFHCHNAYHMETGMLSSLRYE”, for which the protein production result is “failed”. With “EVKEEDAFYSKKCKLFYKKDNEFKEKGIGTLHLKPTANQKTQLLVRADTNLGNILLNVLIPPNMPCTRTGKNNVLIVCVPNPPIDEKNATMPVTMLIRVKTSEDADELHKILLEKKDA”, the protein production result is “not failed”. As for “EVLLETLNATELNETTASLAVHQTMKENGQLFVSNSMAIRYLDRFMDSRPYRMFGNRGINGIDGIVSTALGMSAIAPTQQNVLLIGDLALYHDMNGLFLAKRYQLPLTIVLLNNNGGGIFSFLSQRTLREDDFEPLFGTPLDLDFSLVAELYGASYQEVKTIAELKQILQAAAEEPQFQVIEVKGNRQEN”, the protein production result is recorded as “not failed”.

Regarding “EVLPDGVINVLGASNCPSKGIDRGGVIDLDAAVNSIQRAIEQAESVSNCQIMGVTLAISGQHITALNESGVIPLSGTVVRKEDIDAAIHIAHSIKLPDG”, the protein production result is on record as “failed”.

Turning to “EVNAAMNDGVICDMFEGHTPFKPRYVLPDYARYLQQGSEYLELSPAQDLDEALNALTILYHHVPSVTNIPVYLGQLDDILMPFVEGMDADALYRKLKLFWIMLDRTLPDAFMHVNLGPTDNIVCRTLLRIDAELKQVAPNLTFMYDPAVTPDELLQIATTNICQCSKPHIANYPQHASAFDACGFGIVSCYNALPLAGGANTLVRLNLKEVALKATSINDFFERVLPYYCSLTFELIEARSAFLHQESHFFDSFLVKEQLIDESRFAPMFGIYGMAEAVNILQAQMTSETDKSSQSNKPTGYGHSMDANQLGYRISAALDTIVKSTPVTYGYHGRALLHSQGGISLDKGVTPGVRIPYGTEPNPIAHIQALAQHHQYYTAGISDILTIDETVKSNPQAMFQLCKAALELGFREFTANVASNDLMRVTGYMVKRSDIEAFKQ”, the protein production result is “failed”. Consider “EVPDLPEEPSETAEEVVTVALRCPNGRVLRRRFFKSWNSQVLLDWMMKVGYHKSLYRLSTSFPRRALEVEGGSSLEDIGITVDTVLNVEEKEQSSQ”, for which the protein production entry was “not failed”. Take “EVTGSVSLEALEEVQVGENLEVGVGIDELVNAEAFAYDFTLNYDENAFEYVEAISDDGVFVNAKKIEDGKVRVLVSSLTGEPLPAKEVLAKVVLRAEAKAEGSNLSVTNSSVGDGEGLVHEIAGTEKTVNIIE”: the protein production entry is recorded as “not failed”.
